{"source": "patent US6403637", "about": "(dated 2002)", "binders": {"B1": {"name": "recombinant mouse collagenase-3 (mMMP-13, residues 1-472) (enzyme)", "chain": "not shown", "modifications": "^125I-labeled where used as tracer", "notes": "not shown: N-terminal 6×His purification tag of pET30"}, "B2": {"name": "C-terminally truncated mouse collagenase-3, M(1-265) (enzyme)", "chain": "not shown", "notes": "range 1-265; also called MMP-13 (1-265); truncated MMP-13; not shown: N-terminal 6×His purification tag of pET30"}, "B3": {"name": "H/M(229-472) chimeric collagenase (enzyme)", "chain": "not shown", "notes": "62 kDa; not shown: N-terminal 6×His purification tag of pET30"}, "B4": {"name": "HM/M(141-472) chimeric collagenase (enzyme)", "chain": "not shown", "notes": "as for B3"}}, "key": {"[1]": {"molecular_target": "T1, rat collagenase-3 receptor (170 kDa protein) of UMR 106-01 rat osteosarcoma cells and other rat cells (rat)", "T1 construct": "whole, on cells; on blotted cell membranes in the ligand blots; also called collagenase receptor; rat collagenase receptor", "assay": "from the Scatchard analysis on UMR 106-01 cells"}, "[2]": {"molecular_target": "T2, low density lipoprotein receptor-related protein of rat cells (UMR 106-01, normal rat osteoblasts) (rat)", "T2 construct": "whole, on cells; On blotted membranes in ligand and Western blots; also called LRP; 600 kDa protein", "T2 sequence (G3V928 20-3944)": "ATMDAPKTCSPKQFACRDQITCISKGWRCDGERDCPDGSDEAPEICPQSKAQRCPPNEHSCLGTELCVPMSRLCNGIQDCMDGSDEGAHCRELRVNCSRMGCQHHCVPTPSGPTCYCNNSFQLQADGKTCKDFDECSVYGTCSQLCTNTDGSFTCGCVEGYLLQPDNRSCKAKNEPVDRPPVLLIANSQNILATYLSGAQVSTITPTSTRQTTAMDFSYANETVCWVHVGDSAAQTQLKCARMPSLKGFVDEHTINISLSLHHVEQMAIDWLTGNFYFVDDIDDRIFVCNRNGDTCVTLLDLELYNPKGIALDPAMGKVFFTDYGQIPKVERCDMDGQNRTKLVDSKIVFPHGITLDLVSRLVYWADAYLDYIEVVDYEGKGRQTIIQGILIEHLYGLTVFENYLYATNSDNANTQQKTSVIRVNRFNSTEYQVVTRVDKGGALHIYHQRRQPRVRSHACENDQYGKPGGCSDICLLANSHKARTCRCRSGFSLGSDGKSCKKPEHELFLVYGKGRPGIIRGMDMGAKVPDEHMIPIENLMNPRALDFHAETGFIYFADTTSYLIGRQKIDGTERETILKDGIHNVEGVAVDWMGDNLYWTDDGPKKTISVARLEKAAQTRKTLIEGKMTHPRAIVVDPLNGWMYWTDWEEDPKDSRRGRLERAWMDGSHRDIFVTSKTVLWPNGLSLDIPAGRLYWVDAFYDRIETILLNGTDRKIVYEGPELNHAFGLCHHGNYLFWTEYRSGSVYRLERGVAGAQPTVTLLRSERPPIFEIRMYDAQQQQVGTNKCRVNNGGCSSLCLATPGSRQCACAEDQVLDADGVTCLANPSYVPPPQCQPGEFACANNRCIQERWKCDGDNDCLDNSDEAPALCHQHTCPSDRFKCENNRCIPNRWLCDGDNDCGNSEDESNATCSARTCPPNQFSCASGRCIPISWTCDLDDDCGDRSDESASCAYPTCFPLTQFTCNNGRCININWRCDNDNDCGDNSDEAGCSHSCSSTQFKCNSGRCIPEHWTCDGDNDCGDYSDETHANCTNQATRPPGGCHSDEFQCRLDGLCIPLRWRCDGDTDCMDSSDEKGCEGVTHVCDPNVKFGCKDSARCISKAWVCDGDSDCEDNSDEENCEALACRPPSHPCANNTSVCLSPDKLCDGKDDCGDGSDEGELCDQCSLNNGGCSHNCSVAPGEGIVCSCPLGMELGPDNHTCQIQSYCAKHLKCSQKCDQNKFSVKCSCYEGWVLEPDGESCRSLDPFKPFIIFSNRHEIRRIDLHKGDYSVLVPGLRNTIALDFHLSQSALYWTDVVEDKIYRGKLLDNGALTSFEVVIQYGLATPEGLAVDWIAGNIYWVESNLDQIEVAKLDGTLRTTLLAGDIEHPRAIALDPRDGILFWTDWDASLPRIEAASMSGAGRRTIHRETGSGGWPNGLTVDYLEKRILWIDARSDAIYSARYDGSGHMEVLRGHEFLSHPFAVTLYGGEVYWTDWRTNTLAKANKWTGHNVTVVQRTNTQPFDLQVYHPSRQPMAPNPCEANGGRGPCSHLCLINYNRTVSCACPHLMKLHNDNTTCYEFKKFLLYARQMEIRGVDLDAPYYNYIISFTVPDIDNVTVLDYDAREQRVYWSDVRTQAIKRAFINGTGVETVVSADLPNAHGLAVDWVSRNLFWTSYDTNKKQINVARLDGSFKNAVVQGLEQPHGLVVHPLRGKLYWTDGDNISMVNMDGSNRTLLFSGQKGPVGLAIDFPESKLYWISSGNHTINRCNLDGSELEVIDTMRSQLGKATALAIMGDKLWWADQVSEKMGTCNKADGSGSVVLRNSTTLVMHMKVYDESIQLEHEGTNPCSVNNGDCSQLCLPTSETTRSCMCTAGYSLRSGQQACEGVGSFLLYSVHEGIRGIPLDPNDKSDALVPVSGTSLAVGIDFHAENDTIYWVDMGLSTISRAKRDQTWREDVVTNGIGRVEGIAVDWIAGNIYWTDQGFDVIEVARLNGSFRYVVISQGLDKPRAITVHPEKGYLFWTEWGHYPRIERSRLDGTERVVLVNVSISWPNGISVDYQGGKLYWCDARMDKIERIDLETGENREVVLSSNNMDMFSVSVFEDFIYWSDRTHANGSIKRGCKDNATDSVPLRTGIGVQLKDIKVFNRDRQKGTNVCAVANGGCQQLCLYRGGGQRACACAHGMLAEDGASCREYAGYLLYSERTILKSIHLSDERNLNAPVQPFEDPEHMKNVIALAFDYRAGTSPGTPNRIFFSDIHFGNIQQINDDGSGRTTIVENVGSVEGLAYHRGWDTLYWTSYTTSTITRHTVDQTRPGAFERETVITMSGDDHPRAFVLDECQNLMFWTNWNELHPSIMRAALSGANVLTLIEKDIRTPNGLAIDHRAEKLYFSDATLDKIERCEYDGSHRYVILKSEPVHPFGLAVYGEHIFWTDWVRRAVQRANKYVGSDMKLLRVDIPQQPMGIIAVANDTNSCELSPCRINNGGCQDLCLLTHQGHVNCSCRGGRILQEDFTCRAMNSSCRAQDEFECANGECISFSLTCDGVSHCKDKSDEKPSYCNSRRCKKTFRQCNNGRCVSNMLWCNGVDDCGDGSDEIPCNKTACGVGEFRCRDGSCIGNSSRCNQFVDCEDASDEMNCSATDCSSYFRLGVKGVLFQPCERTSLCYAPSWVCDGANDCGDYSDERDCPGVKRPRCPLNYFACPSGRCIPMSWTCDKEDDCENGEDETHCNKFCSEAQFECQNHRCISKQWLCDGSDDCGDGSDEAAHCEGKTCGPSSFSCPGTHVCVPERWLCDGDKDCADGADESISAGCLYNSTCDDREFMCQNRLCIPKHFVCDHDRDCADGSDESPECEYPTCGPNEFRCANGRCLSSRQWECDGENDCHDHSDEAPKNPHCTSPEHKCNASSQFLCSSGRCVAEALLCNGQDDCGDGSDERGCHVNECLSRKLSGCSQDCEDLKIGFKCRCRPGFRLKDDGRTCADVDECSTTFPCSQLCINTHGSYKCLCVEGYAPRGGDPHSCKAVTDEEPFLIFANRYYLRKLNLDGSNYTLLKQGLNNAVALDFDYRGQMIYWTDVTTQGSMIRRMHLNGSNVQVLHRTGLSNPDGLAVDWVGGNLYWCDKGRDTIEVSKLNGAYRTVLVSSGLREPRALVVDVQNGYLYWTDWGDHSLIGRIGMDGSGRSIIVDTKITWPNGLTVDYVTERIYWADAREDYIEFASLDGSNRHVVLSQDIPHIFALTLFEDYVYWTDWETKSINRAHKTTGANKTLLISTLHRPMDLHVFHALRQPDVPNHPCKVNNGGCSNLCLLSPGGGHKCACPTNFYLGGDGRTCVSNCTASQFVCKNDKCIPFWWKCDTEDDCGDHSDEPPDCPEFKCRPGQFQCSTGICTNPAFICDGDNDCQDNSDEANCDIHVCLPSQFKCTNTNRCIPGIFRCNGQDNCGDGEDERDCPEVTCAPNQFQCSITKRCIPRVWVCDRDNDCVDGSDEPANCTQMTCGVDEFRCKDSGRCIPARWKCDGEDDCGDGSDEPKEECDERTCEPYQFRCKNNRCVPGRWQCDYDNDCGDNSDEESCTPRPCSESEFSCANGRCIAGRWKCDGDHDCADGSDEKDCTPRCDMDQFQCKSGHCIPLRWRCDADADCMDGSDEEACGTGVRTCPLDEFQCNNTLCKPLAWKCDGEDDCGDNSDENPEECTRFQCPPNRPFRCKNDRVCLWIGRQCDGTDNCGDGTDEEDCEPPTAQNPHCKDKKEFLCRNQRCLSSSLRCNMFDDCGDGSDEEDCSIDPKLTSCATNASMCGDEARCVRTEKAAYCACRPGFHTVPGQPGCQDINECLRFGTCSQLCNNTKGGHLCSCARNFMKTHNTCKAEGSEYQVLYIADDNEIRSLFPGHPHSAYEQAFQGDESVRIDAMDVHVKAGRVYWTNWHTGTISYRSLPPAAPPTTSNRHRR", "assay": "computer analysis of ^125I-mMMP-13 binding to UMR106-01 cells; lower affinity site"}, "[3]": {"molecular_target": "T3, collagenase-3 receptor (170 kDa protein) of mouse embryo fibroblasts MEF-1 and MEF-2 (mouse, UniProt Q64449 31-1479)", "T3 construct": "whole, on cells", "T3 sequence (looked up)": "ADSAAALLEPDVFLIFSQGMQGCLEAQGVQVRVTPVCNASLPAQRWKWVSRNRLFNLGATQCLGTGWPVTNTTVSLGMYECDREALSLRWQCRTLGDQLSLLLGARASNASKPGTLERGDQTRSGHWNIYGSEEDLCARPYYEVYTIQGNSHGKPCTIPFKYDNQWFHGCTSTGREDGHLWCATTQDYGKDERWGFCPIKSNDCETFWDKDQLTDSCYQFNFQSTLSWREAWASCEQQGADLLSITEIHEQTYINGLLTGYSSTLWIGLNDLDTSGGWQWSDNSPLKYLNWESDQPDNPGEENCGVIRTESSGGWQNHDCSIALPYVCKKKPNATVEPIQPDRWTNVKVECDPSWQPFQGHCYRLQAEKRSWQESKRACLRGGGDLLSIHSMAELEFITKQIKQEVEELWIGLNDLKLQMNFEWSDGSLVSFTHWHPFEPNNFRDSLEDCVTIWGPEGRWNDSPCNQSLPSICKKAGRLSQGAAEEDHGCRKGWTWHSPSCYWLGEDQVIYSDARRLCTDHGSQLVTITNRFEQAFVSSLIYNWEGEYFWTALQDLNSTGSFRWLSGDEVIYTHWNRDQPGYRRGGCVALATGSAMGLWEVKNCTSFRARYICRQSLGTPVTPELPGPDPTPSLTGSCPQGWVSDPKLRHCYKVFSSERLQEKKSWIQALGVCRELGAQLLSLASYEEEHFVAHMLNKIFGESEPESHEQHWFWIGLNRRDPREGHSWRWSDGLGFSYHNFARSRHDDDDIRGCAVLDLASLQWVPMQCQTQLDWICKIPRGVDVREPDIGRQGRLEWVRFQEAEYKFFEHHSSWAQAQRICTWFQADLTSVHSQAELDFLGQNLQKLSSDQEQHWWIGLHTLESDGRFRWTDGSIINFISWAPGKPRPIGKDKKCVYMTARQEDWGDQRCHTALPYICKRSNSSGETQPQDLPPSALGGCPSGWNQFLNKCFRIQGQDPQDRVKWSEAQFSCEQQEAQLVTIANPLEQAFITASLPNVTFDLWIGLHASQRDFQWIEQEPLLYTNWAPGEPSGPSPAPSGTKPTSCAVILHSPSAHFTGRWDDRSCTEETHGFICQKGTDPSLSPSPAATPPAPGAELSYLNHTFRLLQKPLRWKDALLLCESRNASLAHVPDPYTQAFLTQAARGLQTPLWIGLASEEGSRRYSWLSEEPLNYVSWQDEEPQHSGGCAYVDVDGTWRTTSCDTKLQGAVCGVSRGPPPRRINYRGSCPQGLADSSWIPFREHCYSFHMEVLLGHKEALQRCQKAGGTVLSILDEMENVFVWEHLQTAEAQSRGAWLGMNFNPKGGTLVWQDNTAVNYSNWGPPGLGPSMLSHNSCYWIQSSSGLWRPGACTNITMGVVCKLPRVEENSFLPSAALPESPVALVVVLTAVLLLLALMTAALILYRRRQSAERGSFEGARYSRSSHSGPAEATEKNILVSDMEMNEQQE", "assay": "competition with ^125I mouse collagenase-3 on MEF-2 (LRP null) cells; 200-, 400- and 800-fold excess of competitor", "from_the_text": "This sequence corresponds to a published low density lipoprotein receptor-related protein consensus binding sequence."}, "[4]": {"molecular_target": "T1, rat collagenase-3 receptor (170 kDa …)", "assay": "Scatchard analysis of ^125I-mMMP-13 binding to UMR106-01 cells; high affinity site (ostensibly the collagenase-3 receptor)"}, "[5]": {"molecular_target": "T2, low density lipoprotein …", "assay": "Scatchard analysis of ^125I-mMMP-13 binding to UMR106-01 cells; lower affinity site (ostensibly the low density lipoprotein receptor-related protein)"}}}
{"binder": "B1", "values": [{"measurement": "fold higher affinity compared to the low density lipoprotein receptor-related protein", "setting": "[1]", "result": "~10", "unit": "fold"}, {"measurement": "Kd", "setting": "[2]", "result": 52.8, "unit": "nM"}, {"measurement": "percent of mouse collagenase-3 binding", "setting": "[3]", "result": 100, "unit": "%"}, {"measurement": "Kd", "setting": "[4]", "result": 3.9, "unit": "nM"}, {"measurement": "Kd", "setting": "[5]", "result": 46.2, "unit": "nM"}]}
{"binder": "B2", "values": [{"measurement": "percent of mouse collagenase-3 binding", "setting": "[3]", "result": 99.4, "unit": "%"}]}
{"binder": "B3", "values": [{"measurement": "percent of mouse collagenase-3 binding", "setting": "[3]", "result": 0, "unit": "%"}]}
{"binder": "B4", "values": [{"measurement": "percent of mouse collagenase-3 binding", "setting": "[3]", "result": 15.3, "unit": "%"}]}
